As usually defined, the stoichiometry N is a count of units in the complex or per binding partner.

For experiment [1], the target named is 6X(His)-tagged P-domain of the VP1 capsid protein of norovirus VA387 (GII.4 genotype), with the cysteine-rich peptide … (norovirus VA387 (GII.4 genotype)). Put plainly: cross-linking; 5 ug protein in HEPES 20 mM pH 7, NaCl 100 mM, MgCl2 10 mM with 0%, 0.5% or 1% glutaraldehyde, 5 min at 37°C; samples with or without boiling resolved on 10% SDS-PAGE.
In experiment [2] the target is 6X(His)-tagged P-domain of the VP1 capsid protein of norovirus Norwalk strain (GI.1 genotype), with the CNGRC cysteine-rich domain (Norwalk virus (GI.1 genotype)). The experiment is described as above.

As to “6X(His)-tagged P-domain of the VP1 capsid protein of norovirus VA387 (GII.4 genotype), with the cysteine-rich peptide … (domain or fragment)”, the stoichiometry N in experiment [1] was > 2. With “6X(His)-tagged P-domain of the VP1 capsid protein of norovirus Norwalk strain (GI.1 genotype), with the CNGRC cysteine-rich domain (domain or fragment)”, the stoichiometry N in experiment [2] was > 2.

Values taken from publication PMC3931819.
